The text below walks through data of article PMC5705280.

In this assay the target is Cul3 (Cullin3) (UniProt Q9JLV5). Nature of the assay: co-IP. The following applies: reference: PHLPP2 wild type; sites S1119,S1210.

Turning to “PHLPP2 (from UniProt Q6ZVD8) PHLPP2-2A (S1119A/S1210A)”, the “binding against the reference” value is “weaker”.
